The target of experiment [1] is T1, Native Nav1.7 (3-1) peptide, rat (rat).
T1 construct: Synthetic peptide; also called Rat Nav1.7 3-1 native
T1 peptide: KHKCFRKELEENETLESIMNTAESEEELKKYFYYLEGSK
Put plainly: SPR, captured antibody, peptide analyte. In outline:
(§1)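 Peptide analytes flowed at multiple concentrations over anti-Nav1.7 antibodies held by an anti-Fc capture surface. After reference-surface and buffer-blank subtraction, a global 1:1 Langmuir fit gave ka and kd, with KD as kd/ka and dissociative half-life as ln2/kd.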

Experiment [2] has as its target T2, N-Term Biotin Nav1.7 (3-1) peptide, mulatta (mulatta (monkey), not fully specified; N-terminal biotin attached via a G4S linker).
T2 construct: Synthetic peptide; also called Mulatta Nav1.7 3-1 N-term biotin; monkey
T2 peptide: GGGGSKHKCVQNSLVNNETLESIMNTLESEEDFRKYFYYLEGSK
Put plainly: SPR, captured antibody, peptide analyte. In outline:
as §1
(SPR reads the build-up and loss of mass on a sensor chip optically.)

Experiment [3] deals with T3, Native Nav1.7 (3-1) peptide, human (human).
T3 construct: Synthetic peptide (Celtek), unbiotinylated; also called Human Nav1.7 3-1 native; Nav1.7 3-1 native peptide
T3 peptide: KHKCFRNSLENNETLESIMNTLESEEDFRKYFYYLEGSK
Put plainly: SPR, captured antibody, peptide analyte. In outline: as §1

Experiment [4] concerns the target T4, N-Term Biotin Nav1.7 (3-1) peptide, mouse (mouse, not fully specified; N-terminal biotin attached via a G4S linker).
T4 construct: Synthetic peptide; also called Mouse Nav1.7 3-1 N-term biotin
T4 peptide: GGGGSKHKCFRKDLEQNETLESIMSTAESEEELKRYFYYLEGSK
Put plainly: SPR, captured antibody, peptide analyte. In outline:
as §1

In experiment [5] the target is T1, Native Nav1.7 (3-1) peptide, rat. As to the kind of experiment: ELISA on coated peptide. In outline:
(§2)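 Binding graded from absorbance at OD450 for antibodies applied at 1 μg/ml (− below 0.2, + 0.2–1, ++ 1–2, +++ 2–4; NT not tested); antibodies were also run at 0.1 μg/mL. Biotin-peptides at 0.4 μg/mL on avidin-coated plates, other peptides at 4 μg/mL; 1 h RT binding; HRP anti-IgG/TMB detection.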
Background: An ELISA detects its analyte on a solid surface through an enzyme-linked reagent.

Experiment [6] has as its target T4, N-Term Biotin Nav1.7 (3-1) peptide, …. As to the kind of experiment: ELISA on coated peptide. In outline: as §2
Experiment [7] concerns the target T5, N-Term Biotin-Nav1.7 (3-3) peptide, human (same sequence of EC3-3 for mulatta) (human (same sequence of EC3-3 for …, not fully specified; N-terminal biotin attached via a G4S linker).
T5 construct: ELISA peptide
T5 peptide: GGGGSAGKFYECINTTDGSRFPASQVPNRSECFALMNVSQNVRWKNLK
As to the kind of experiment: ELISA on coated peptide, antibody 1 ug/ml, OD450 grade; Human. How it is done:
(§3) Anti-Naᵥ 1.7 antibodies were tested for their ability to bind to the Naᵥ 1.7 peptides. The various peptides were coated overnight onto 96-well Nunc Immunosorp plates at a concentration of 4 μg/mL in PBS, followed by blocking for 1 hour in a suitable blocking agent. For biotinylated peptides, avidin was first coated on Nunc Immunosorp plates at 2 μg/mL in PBS overnight, followed by blocking as described, and the plate was then coated with biotinylated peptides at a concentration of 0.4 μg/mL and incubated for 1 hour at room temperature. Purified anti-Naᵥ 1.7 antibodies were diluted to a final concentration of 0.1 μg/mL and 1.0 μg/mL and added to the wells of the coated microtiter plates followed by incubation for 1 hour at room temperature. Bound antibodies were detected with horseradish peroxidase (HRP) conjugated anti-mouse or anti-human IgG (Jackson Immuno Research Lab, West Grove, Pa.) depending on the antibody species and developed by colorimetric response using tetramethylbenzidine (TMB) substrate (BD Biosciences). Absorbance was read at OD₄₅₀ on a plate reader for 0.1 second.
(§4) Values in Table 11 represent absolute binding ranges (at OD450) to plate-coated peptides for antibodies added at 1 μg/ml as follows: OD450<0.2: −; 0.2<OD450<1: +; 1<OD450<2: ++; 2<OD450<4: +++; NT: Not Tested.

The target in experiment [8] is T5, N-Term Biotin-Nav1.7 (3-3) peptide, …. As to the kind of experiment: ELISA on coated peptide, antibody 1 ug/ml, OD450 grade; Monkey column. How it is done: as §3, §4
The target in experiment [9] is T6, C-term Biotin Nav1.7 (3-3) peptide, human (human, C-terminal biotin attached via a G4S linker).
T6 construct: Synthetic peptide; also called Human Nav1.7 3-3 C-term biotin
T6 peptide: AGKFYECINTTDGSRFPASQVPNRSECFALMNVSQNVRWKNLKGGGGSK
Put plainly: SPR, captured biotin-peptide, antibody analyte.

Experiment [10] addresses T7, Native Nav1.7 (3-3) peptide, human (human).
T7 construct: Synthetic peptide, unbiotinylated; also called Human Nav1.7 3-3 native; Nav1.7 3-3 native peptide
T7 peptide: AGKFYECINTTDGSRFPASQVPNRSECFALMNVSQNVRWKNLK
As to the kind of experiment: Biacore (second token of ELISA/Biacore summary).

For experiment [11], the target named is T7, Native Nav1.7 (3-3) peptide, human. As to the kind of experiment: Biacore (second token of ELISA/Biacore summary).

Residue numbers refer to the chain shown, from its start. Read-outs that look alike come from different tables or passages of the source.

B1: H1M797N (antibody, V domains shown)
VH: QVQLVESGGGVVQPGRSLRLSCAASGFTFSSYGMHWVRQAPGKGLEWVAVISYDGNNKHFADSVKGRFTISRDNSKNTLNLQMNSLRAEDRAVYYCARGASGFVLDIWGQGTMVTVSS
VL: DIVMTQTPLSSPVTLGQPASISCRSSQSLVRSDGNTYLSWLQQRPGQPPRLLIYKISNRFSGVPDRFSGSGAGTDFTLKISRVEAEDVGIYFCMQTTQFPFTFGPGTKVDIK
The term Kd denotes the free concentration of one partner at which half of the binding sites on the other are occupied at equilibrium, for simple one-to-one binding. For B1, the Kd in [1] was 2.57 nM; in experiment [2], 0.435 nM; in experiment [3] it was 0.462 nM; in experiment [4], 7.4 nM. Also, the t1/2 is 5.8 min in experiment [1], 43.7 min in experiment [2], 16 min in experiment [3] and 4.6 min in [4].

B2: H1M801N (antibody, V domains shown)
VH: QVQVVESGGGVVQPGRSLRLSCAASGFTFSNYGMHWVRQAPGKGLEWVTVISYDGSNKNYADSVKGRFTISRDNSKNTLYLQMNSLRAEDTAMYYCARGGSGFAFDIWGQGTMVTVSS
VL: B1 VL with E86D, I90V, F92Y
notes: also called H1H801N
As for B2, the Kd in [1] amounted to 4.16 nM; in experiment [2], 0.889 nM; in experiment [3], 3.73 nM; in experiment [4] it was 3.53 nM. The t1/2 was found to be 3.6 min in experiment [1], 16.8 min in experiment [2], 4.3 min in experiment [3] and 4.2 min in experiment [4].

B3: H1H1006B (antibody, V domains shown)
VH: EVQLVESGPGLVKSSETLSLKCTVSGGSISSSGYYWGWIRQPPGKGLEWIGSIHRSGSTFYNPSLKSRVTISVDTSKSQFSLRLTSVTAADTSVYFCGRHGRDYYYGMDVWGQGTTVTVSS
VL: DIQMTQSPSSVSASVGDRVTITCRSSQDINNWLVWYQQKPGKAPKVLIYGASRLQSGVPSRFSGSGSGTDFTLTISSLQPEDFATYYCQQANSFPLTFGGGTKVEIKR
notes: Fully human antibody; also called H4H1006B-1
As for B3, the Kd in experiment [1] amounted to 33.9 nM; in [2], 6.1 nM; in experiment [3], 16.4 nM; in experiment [4], 103 nM. The t1/2 in experiment [1] worked out at 0.74 min; in [2], 7.5 min; in experiment [3], 3.3 min; in experiment [4], 0.62 min.

B4: H1M836N (antibody, V domains shown)
VH: QVQLVESGGGVVQPGRSLRLSCAASGFTFSSYGMHWVRQAPGKGLEWVAVISYDGNNKYYADSVKGRFTISRDNSKNTLYLQMNSLRAEDTAVYYCAKGSAGYALDYWGQGTLVTVSS
VL: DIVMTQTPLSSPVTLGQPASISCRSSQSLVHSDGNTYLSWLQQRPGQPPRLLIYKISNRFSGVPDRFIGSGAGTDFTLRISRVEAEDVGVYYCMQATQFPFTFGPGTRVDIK
Turning to B4, the dissociation constant (Kd) in experiment [1] worked out at 298 nM; in experiment [2], 18.1 nM; in experiment [3] it was 332 nM. Further, the t1/2 in experiment [1] worked out at 0.1 min; in experiment [2] it was 1.7 min; in [3] it was 0.3 min.

B5: H1M879N (antibody, V domains shown)
VH: EVQLVESGGGLVKPGGSLRLSCAASGFTFSSYTIHWVRQAPGKGLEWVSSISSSSSYIYYVDSVKGRFTISRDNAKNSVYLQMNSLRAEDTAVYYCATSSITARGYFDYWGQGTLVTVSS
VL: EIVLTQSPATLSLSPGERVTLSCRASQSVSSYLAWYQQKPGQAPRLLIYDASNRATGIPARFSGSGSGTDFTLTISSLEPEDFAVYYCQQRNIWPPTFGQGTKVEIK
notes: Hybridoma-derived
For B5, the binding result in experiment [1] and in experiment [4] was “no binding” in each case. The equilibrium dissociation constant (Kd) amounted to 1.05 nM in experiment [2] and 4.43 nM in experiment [3]. Also, the t1/2 was 11.7 min in experiment [2] and 3 min in experiment [3]. Further, the OD450 in experiment [5] and in [6] was less than 0.2 od each time.

B6: H1M852N (antibody, V domains shown)
VH: QVQLVESGGGVVQPGRSLTLSCAASGFMFNRFGMHWVRQAPGKGLDWVAVIWYDGSNKYYADSVKGRFTISRDNSKNTLYLQVNSLRAEDTAVYYCAREGTPHYYDSSGLDYWGQGTLVTVSS
VL: AIQMTQSPSSLSAYVGDRVTITCRASQDIRNDLGWYQQKPGKAPNLLIYDISSLQSGVPSRFSGSGSGTDFTLTISSLQPEDFATYYCLQDYNYPLTFGGGTKVEIK
notes: constant region may differ; also called H4H852N
In the case of B6, the OD450 in experiment [7] and in experiment [8] was 1 to 2 od in each case. The equilibrium dissociation constant (Kd) in experiment [9] was 117 nM; in [10], more than 200 nM; in experiment [11], more than 200 nM. The molecule also returned a t1/2 in experiment [9] of 1.3 min.

For the origin of these results see patent US20160024208A1 (Regeneron, published 2016).
